Test results taken from paper PMC9688318, “Construction of a Versatile, Programmable RNA-Binding Protein Using Designer PPR Proteins and Its Application for Splicing Control in Mammalian Cells”.

Assays:
PPR2.0 t23 [1] = target: T1, PPR2.0 t23 (synthetic); test: EMSA; 20 mM Tris-HCl pH 8.0, 150 mM NaCl, 0.5% NP-40, 1 mM DTT, 1 mM EDTA; 20 nM RNA; conditions: tags: N-terminal SBP, C-terminal His6, kept; label: biotin
T1 chain: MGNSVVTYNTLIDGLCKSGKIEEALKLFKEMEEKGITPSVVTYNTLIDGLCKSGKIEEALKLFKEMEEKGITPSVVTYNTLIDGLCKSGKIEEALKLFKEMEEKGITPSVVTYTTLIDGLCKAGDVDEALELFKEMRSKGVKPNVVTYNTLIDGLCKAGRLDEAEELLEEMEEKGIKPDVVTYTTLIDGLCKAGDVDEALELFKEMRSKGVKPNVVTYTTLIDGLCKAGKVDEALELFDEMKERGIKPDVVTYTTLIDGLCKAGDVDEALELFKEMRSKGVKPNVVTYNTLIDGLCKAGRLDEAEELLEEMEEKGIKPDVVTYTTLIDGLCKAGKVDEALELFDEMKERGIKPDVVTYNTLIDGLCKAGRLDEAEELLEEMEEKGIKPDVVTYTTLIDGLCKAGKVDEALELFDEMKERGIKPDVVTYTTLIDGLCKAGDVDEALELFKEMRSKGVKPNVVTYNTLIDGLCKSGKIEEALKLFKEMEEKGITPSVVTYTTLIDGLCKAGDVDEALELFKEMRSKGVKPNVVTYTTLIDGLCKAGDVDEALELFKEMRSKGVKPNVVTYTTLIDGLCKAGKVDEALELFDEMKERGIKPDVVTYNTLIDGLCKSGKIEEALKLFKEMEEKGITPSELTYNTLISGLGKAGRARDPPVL

PPR2.0 t23 [2] = target: T1, PPR2.0 t23; test: 20 mM Tris-HCl pH 8.0, 150 mM NaCl, 0.5% NP-40, 1 mM DTT; conditions: tags: N-terminal NanoLuc, C-terminal His6, kept; label: biotin
PPR2.0 t19 [3] = target: T2, PPR2.0 t19 (synthetic); test: EMSA; 20 mM Tris-HCl pH 8.0, 150 mM NaCl, 0.5% NP-40, 1 mM DTT, 1 mM EDTA; 20 nM RNA; conditions: tags: N-terminal SBP, C-terminal His6, kept; label: biotin
T2 chain: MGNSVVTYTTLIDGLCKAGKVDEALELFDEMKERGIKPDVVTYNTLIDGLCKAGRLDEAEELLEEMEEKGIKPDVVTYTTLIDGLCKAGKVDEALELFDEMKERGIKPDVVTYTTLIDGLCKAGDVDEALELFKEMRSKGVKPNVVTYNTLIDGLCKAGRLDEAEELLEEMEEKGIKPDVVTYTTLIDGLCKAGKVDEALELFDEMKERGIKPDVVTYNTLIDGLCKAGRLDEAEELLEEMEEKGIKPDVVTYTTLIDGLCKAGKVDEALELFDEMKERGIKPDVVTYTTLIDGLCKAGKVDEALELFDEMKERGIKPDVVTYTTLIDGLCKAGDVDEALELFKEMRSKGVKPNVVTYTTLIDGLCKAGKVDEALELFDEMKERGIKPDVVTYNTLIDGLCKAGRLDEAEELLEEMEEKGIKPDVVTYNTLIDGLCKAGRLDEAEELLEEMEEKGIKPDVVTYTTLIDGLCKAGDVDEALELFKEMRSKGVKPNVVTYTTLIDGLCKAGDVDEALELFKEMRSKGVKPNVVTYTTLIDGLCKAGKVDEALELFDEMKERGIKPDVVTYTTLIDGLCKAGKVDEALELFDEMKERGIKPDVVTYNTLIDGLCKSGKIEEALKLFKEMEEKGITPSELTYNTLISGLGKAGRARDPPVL

PPR2.0 t19 [4] = target: T2, PPR2.0 t19; test: 20 mM Tris-HCl pH 8.0, 150 mM NaCl, 0.5% NP-40, 1 mM DTT; conditions: tags: N-terminal NanoLuc, C-terminal His6, kept; label: biotin
PPR2.0 t3 [5] = target: T3, PPR2.0 t3 (synthetic); test: EMSA; 20 mM Tris-HCl pH 8.0, 150 mM NaCl, 0.5% NP-40, 1 mM DTT, 1 mM EDTA; 20 nM RNA; conditions: tags: N-terminal SBP, C-terminal His6, kept; label: biotin
T3 chain: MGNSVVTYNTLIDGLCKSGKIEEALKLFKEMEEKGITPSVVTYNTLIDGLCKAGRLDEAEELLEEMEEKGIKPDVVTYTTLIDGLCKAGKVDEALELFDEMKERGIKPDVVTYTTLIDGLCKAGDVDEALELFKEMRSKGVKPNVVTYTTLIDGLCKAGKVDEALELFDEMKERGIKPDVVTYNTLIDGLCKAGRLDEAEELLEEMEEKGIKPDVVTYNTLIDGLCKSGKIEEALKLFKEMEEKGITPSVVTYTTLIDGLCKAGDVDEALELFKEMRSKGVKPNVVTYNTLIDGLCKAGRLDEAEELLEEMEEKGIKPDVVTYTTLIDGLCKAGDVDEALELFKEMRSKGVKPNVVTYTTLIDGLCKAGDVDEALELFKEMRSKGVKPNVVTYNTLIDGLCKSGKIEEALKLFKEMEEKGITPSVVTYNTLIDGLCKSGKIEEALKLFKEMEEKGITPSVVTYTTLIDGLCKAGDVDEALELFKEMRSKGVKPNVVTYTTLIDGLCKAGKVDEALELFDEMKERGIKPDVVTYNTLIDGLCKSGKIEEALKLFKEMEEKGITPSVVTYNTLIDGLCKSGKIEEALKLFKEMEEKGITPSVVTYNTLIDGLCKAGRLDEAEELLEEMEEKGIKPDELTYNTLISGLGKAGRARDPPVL

PPR2.0 t3 [6] = target: T3, PPR2.0 t3; test: 20 mM Tris-HCl pH 8.0, 150 mM NaCl, 0.5% NP-40, 1 mM DTT; conditions: tags: N-terminal NanoLuc, C-terminal His6, kept; label: biotin
PPR2.0 t1 [7] = target: T4, PPR2.0 t1 (synthetic); test: EMSA; 20 mM Tris-HCl pH 8.0, 150 mM NaCl, 0.5% NP-40, 1 mM DTT, 1 mM EDTA; 20 nM RNA; conditions: tags: N-terminal SBP, C-terminal His6, kept; label: biotin
T4 chain: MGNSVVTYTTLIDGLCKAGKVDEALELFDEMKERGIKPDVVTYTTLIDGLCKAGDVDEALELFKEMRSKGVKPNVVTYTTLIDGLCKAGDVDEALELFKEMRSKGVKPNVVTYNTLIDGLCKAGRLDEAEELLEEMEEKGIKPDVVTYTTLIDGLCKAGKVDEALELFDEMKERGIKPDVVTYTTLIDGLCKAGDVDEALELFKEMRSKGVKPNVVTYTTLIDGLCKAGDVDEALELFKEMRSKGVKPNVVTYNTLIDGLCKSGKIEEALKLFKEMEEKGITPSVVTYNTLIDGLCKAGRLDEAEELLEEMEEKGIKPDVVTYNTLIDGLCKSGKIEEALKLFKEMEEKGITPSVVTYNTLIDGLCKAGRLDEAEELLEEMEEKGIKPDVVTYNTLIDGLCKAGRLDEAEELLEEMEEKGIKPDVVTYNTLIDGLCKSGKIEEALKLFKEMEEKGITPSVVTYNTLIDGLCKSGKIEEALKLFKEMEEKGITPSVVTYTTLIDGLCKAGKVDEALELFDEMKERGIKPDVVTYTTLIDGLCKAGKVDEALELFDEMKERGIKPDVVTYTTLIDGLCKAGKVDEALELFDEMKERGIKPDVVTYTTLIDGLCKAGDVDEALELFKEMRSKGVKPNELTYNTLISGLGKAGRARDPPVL

PPR2.0 t1 [8] = target: T4, PPR2.0 t1; test: 20 mM Tris-HCl pH 8.0, 150 mM NaCl, 0.5% NP-40, 1 mM DTT; conditions: tags: N-terminal NanoLuc, C-terminal His6, kept; label: biotin
MS2 protein = MS2 protein (UniProt P03612 2-130); test: RBP-ELISA; purified and lysate, dose-dependent; EMSA: 20 mM Tris-HCl pH 8.0, 150 mM NaCl, 0.5% NP-40, 1 mM DTT, 1 mM EDTA, 0.2 pmol biotin-RNA in 10 uL, 6% PAGE in 0.5x TBE; temperature not stated; RBP-ELISA; conditions: protein: recombinant; tags: 6xHis; Nano-luc; chain copies: 2; label: 5'-biotin; hairpin
MS2 protein, sequence (P03612 2-130): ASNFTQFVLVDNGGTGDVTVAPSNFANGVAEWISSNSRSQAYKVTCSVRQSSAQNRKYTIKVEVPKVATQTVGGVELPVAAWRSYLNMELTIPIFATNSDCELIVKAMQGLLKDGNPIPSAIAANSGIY

PPR2.0 t24 = target: T5, PPR2.0 t24 (synthetic); test: EMSA; 20 mM Tris-HCl pH 8.0, 150 mM NaCl, 0.5% NP-40, 1 mM DTT, 1 mM EDTA; 20 nM RNA; conditions: tags: N-terminal SBP, C-terminal His6, kept; label: biotin
T5 chain: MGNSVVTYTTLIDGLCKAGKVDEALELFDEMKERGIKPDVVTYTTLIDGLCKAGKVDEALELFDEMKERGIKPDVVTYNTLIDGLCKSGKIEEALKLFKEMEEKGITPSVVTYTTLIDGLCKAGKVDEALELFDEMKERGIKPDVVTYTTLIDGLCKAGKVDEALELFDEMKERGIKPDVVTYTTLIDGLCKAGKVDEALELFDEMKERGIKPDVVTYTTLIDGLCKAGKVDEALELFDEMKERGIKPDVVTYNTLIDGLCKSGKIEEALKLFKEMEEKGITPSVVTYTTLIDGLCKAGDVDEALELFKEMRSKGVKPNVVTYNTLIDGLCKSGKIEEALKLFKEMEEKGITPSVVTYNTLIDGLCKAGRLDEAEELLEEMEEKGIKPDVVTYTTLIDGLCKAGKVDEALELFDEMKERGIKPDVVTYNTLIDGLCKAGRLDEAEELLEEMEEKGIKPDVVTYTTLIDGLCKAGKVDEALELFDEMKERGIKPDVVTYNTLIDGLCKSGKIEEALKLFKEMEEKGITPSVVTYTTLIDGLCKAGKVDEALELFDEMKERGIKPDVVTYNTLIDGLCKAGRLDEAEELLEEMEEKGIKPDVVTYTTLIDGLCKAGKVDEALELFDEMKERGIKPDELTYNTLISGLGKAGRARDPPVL

PPR2.0 t2 [9] = target: T6, PPR2.0 t2 (synthetic); test: as above; conditions: tags: N-terminal SBP, C-terminal His6, kept; label: biotin
T6 chain: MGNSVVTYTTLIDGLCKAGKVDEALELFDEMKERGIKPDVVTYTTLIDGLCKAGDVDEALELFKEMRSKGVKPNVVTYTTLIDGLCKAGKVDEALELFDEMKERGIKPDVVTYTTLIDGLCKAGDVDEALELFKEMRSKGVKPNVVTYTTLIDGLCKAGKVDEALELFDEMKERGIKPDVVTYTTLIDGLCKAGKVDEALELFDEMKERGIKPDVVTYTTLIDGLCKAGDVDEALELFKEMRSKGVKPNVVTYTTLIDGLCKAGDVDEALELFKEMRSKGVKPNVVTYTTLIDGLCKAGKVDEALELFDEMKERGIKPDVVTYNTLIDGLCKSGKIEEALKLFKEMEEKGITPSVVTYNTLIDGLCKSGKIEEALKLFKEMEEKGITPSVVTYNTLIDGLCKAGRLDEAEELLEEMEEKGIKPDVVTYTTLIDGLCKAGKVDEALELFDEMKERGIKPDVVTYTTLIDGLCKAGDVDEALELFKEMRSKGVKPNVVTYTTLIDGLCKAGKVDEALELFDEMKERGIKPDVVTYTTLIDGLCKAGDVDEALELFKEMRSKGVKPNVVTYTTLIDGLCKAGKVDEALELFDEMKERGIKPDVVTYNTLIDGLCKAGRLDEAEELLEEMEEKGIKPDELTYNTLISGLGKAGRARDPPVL

PPR2.0 t2 [10] = target: T6, PPR2.0 t2; test: 20 mM Tris-HCl pH 8.0, 150 mM NaCl, 0.5% NP-40, 1 mM DTT; conditions: tags: N-terminal NanoLuc, C-terminal His6, kept; label: biotin

B1: Probe_t23 (ssRNA)
RNA: GACAUGCCCCAUAGAUGUGACAAGCGACUG
- Kd (PPR2.0 t23 [1]): 10.4 nM
- binding signal (PPR2.0 t23 [2]): 3.27e+07 RBP-ELISA luminescence, CPS

B2: Probe_t19 (ssRNA)
RNA: GACAUGCGUGAUGUGGAGUUAAGGCGACUG
- Kd (PPR2.0 t19 [3]): 173 nM
- binding signal (PPR2.0 t19 [4]): 1.19e+07 RBP-ELISA luminescence, CPS

B3: Probe_t3 (ssRNA)
RNA: GACAUGCCUGAGUCAUAACCAGCCUGACUG
- Kd (PPR2.0 t3 [5]): 59.2 nM
- binding signal (PPR2.0 t3 [6]): 3.35e+07 RBP-ELISA luminescence, CPS

B4: Probe_t1 (ssRNA)
RNA: GACAUGCGAAUGAACUCUUCCGGGAGACUG
- Kd (PPR2.0 t1 [7]): 3.45 nM
- binding signal (PPR2.0 t1 [8]): 6.64e+07 RBP-ELISA luminescence, CPS

B5: Probe_MS2 (structured_RNA)
RNA: AGAAAACAUGAGGAUCACCCAUGUCUGCAG
- binding result (MS2 protein): binds

B6: Probe_t24 (ssRNA)
RNA: GACAUGCGGCGGGGCACUGUGCGUGGACUG
- Kd (PPR2.0 t24): 11 nM

B7: Probe_t2 (ssRNA)
RNA: GACAUGCGAGAGGAAGCCUGAGAGUGACUG
- Kd (PPR2.0 t2 [9]): 4 nM
- binding signal (PPR2.0 t2 [10]): 5.68e+07 RBP-ELISA luminescence, CPS
